# In IntAct's records for PubMed 21828050:
# B1: Kelch-like protein 7 (Homo sapiens), Q8IXQ5 (parent)
# chain: MAASGVEKSSKKKTEKKLAAREEAKLLAGFMGVMNNMRKQKTLCDVILMVQERKIPAHRVVLAAASHFFNLMFTTNMLESKSFEVELKDAEPDIIEQLVEFAYTARISVNSNNVQSLLDAANQYQIEPVKKMCVDFLKEQVDASNCLGISVLAECLDCPELKATADDFIHQHFTEVYKTDEFLQLDVKRVTHLLNQDTLTVRAEDQVYDAAVRWLKYDEPNRQPFMVDILAKVRFPLISKNFLSKTVQAEPLIQDNPECLKMVISGMRYHLLSPEDREELVDGTRPRRKKHDYRIALFGGSQPQSCRYFNPKDYSWTDIRCPFEKRRDAACVFWDNVVYILGGSQLFPIKRMDCYNVVKDSWYSKLGPPTPRDSLAACAAEGKIYTSGGSEVGNSALYLFECYDTRTESWHTKPSMLTQRCSHGMVEANGLIYVCGGSLGNNVSGRVLNSCEVYDPATETWTELCPMIEARKNHGLVFVKDKIFAVGGQNGLGGLDNVEYYDIKLNEWKMVSPMPWKGVTVKCAAVGSIVYVLAGFQGVGRLGHILEYNTETDKWVANSKVRAFPVTSCLICVVDTCGANEETLET
# Variants of: B1
# Conditions: with cul3_human CUL3, Q13618
row,Variant,effect of a mutation on the interaction
1,A153T,disrupting interaction
2,A153V,disrupting interaction

# Variants of: B1
# Conditions: with cul3_human CUL3, Q13618
# Remark: another data set of the same source
row,Variant,effect of a mutation on the interaction
1,A153V,decreasing interaction
